Entries after “also recorded” stand apart in the source; their conditions may differ.
Key:
[1] = system: 12 week human fetal distal epithelial lung buds; assay: Isolated human fetal lung bud culture in Matrigel: growth/expansion; format: cell-based; settings: FGF7 alone, 2, 4 and 6 weeks in culture
Text: All research utilizing human fetal tissue was approved by the University of Michigan institutional review board. Normal human fetal lungs were obtained from the University of Washington Laboratory of Developmental Biology, and epithelial lung buds were dissected as described below. All experiments were repeated using tissues from 3 individual lungs; 84 day post fertilization of unknown gender, 87 day post fertilization male, and 87 day post fertilization of unknown gender. All tissues were shipped in Belzer's solution at 4 degrees Celsius and were processed and in culture within 24 hours of isolation.
Isolated mouse buds were cultured in 4-6 μl droplets of matrigel, covered with media, and kept at 37 degrees Celsius with 5% Carbon Dioxide. Isolated human fetal lung buds were cultured in 25-50 μl droplets of matrigel, covered with media, and kept at 37 degrees Celsius with 5% Carbon Dioxide.
Distal regions of 12 week fetal lungs were cut into ˜2 mm sections and incubated with dispase, 100% FBS and then 10% FBS as described above, and moved to a sterile petri dish. Mesenchyme was removed by repeated pipetting of distal lung pieces after dispase treatment. Buds were washed with DMEM until mesenchymal cells were no longer visible in the media. Buds were then moved to a 1.5 mL eppendorf tube containing 200 uL of Matrigel, mixed using a p200 pipette, and plated in ˜20 uL droplets in a 24 well tissue culture plate. Plates were placed at 37 degrees Celsius with 5% CO2 for 20 minutes while droplets solidified. 500 uL of media was added to each well containing a droplet. Media was changed every 2-3 days.
All mouse bud, human fetal bud, and hPSC-derived human lung organoids were grown in low-serum basal media (basal media) with added growth factors. […]

[2] = system: hPSC-derived foregut spheroids / HLOs; assay: hPSC-derived foregut spheroid / human lung organoid (HLO) culture: growth and phenotype; format: cell-based
Experimental: Given the robustness by which 3F media supported mouse and human lung bud progenitor growth and identity, experiments sought to determine whether these culture conditions could promote a distal epithelial lung progenitor-like population from hPSCs. NKX2.1+ ventral foregut spheroids were generated as previously described (Dye et al., 2016a; 2015), and were cultured in a droplet of Matrigel and overlaid with media containing 3F (FGF7, CHIR-99021, RA). Spheroids were considered to be “day 0” on the day they were placed in Matrigel. […] Epithelial structures grew first as cystic structures over the course of 2 weeks, followed by a period of epithelial folding that occurred between weeks 3-4 (FIG. 7A; FIG. 8C-D). Around 5-6 weeks in culture, the epithelial structures began forming bud-like structures that resembled human fetal epithelial distal bud tips that underwent bifurcations (FIG. 7A-B; FIG. 8D—bottom row). HLOs were passaged by gently removing Matrigel and replating in a fresh droplet while preserving structural integrity. In this way, HLOs were able to grow for over 16 weeks in culture while retaining their original shape. HLOs could also be passaged using mechanical shear through a 27-gauge needle, followed by embedding in fresh Matrigel and 3F media (FIG. 8E). Following passage, HLOs robustly re-established many small cysts that were expanded and serially passaged every 7-10 days many times (FIG. 8F).
The University of Michigan Human Pluripotent Stem Cell Research Oversight (hPSCRO) Committee approved all experiments using human embryonic stem cell (hESC) lines. hESC line UM63-1 (NIH registry #0277) was obtained from the University of Michigan and hESC line H9 (NIH registry #0062) was obtained from the WiCell Research Institute. ES cell lines were routinely karyotyped to ensure normal karyotype and ensure the sex of each line (H9-XX, UM63-1-XX). Cells are monitored for mycoplasma infection monthly using the MycoAlert Mycoplasma Detection Kit (Lonza). […]

[3] = proportion of organoids in the medium

B1: Recombinant Human Fibroblast Growth Factor 7 (protein, UniProt P21781 32-194, looked up)
Fibroblast growth factor 7: CNDMTPEQMATNVNCSSPERHTRSYDYMEGGDIRVRRLFCRTQWYLRIDKRGKVKGTQEMKNNYNIMEIRTVAVGIVAIKGVESEFYLAMNKEGKLYAKKECNEDCNFKELILENHYNTYASAKWTHNGGEMFVALNQKGIPVRGKKTKKEQKTAHFLPMAIT
notes: Recombinant human growth factor from R&D systems, used at 10 ng/mL unless otherwise noted
- Growth of human fetal lung buds in vitro [1]: robust growth in vitro after 2 and 4 weeks, but resulted in reduced growth after 6 weeks; also recorded: supported an initial expansion of buds, but the tissue stopped expanding beyond the 4 week period
- HLO morphology after switch to FGF7 only ([2]; 42 days 3F then 26 days FGF7 only, compared to 3F HLOs): lost the peripheral bud-like regions
- HLOs with 'dense' phenotype [2, 3]: 90%
- HLOs with clear epithelial phenotype [2, 3]: 5%

— US11857697B2, “Compositions and methods for obtaining 3-dimensional lung-like epithelium and related uses thereof” (THE REGENTS OF THE UNIVERSITY OF MICHIGAN, priority 2017, dated 2024)
